{"source": "patent US10214741B2", "about": "“Methods and compositions for inhibiting retinopathy of prematurity” (University of Utah Research Foundation, priority 2014, dated 2019)", "key": {"rat ROP model": {"tested_on": "rat ROP model", "assay": "Lectin-stained retinal flat mounts, IVNV and AVA, rat ROP model (rat 50/10 OIR model)", "assay_type": "in vivo", "conditions": "1 uL intravitreal, ROP model"}, "macrophages": {"tested_on": "macrophages", "assay": "Macrophages in rat ROP and ROP+SO models", "assay_type": "in vivo", "conditions": "1 uL intravitreal", "text": "Activation of NADPH oxidase generally requires aggregation of a NOX isoform (NOX1-5, Duox1 or 2) with membrane bound p22phox; for NOX1-3 activation, aggregation with Rac1 and cytoplasmic subunits p47phox, p67phox or homologs is also required. Few studies address oxygen effects on NADPH oxidase regulated signaling in ROP or development. Studying NADPH oxidase in vivo is also complicated, because 1) of compensation from NOX isoforms or homologs, which differ in different tissues, and 2) most inhibitors are not specific. In this example, oxygen stresses were varied by using 3 different OIR models: ROP and ROP+SO models in rat and OIR model in mouse. NADPH oxidase-induced signaling in ECs was targeted by reducing leukocyte/macrophages, which generate ROS through NADPH oxidase, or with a transgenic mouse. In rat ROP and ROP+SO models, macrophages ˜75% (FIG. 7A) were reduced with 1 uL intravitreal clodronate). […] Macrophages have multiple effects on angiogenesis including through non-NADPH oxidase mechanisms, so a more specific method was used to study NADPH oxidase-related signaling. NOX 1, 2, 4 are known to be involved in pathologic retinal angiogenesis; NOX2 is in macrophages and ECs. Therefore p47phox−/− mice were used to reduce NADPH oxidase activation from NOX 1-3. […]"}, "retina [1]": {"tested_on": "retina", "conditions": "long-term periocular treatment; cited from earlier work"}, "retina [2]": {"tested_on": "retina", "assay": "TUNEL staining, retinal layer thickness, caspase 3 in retina, rat ROP model", "assay_type": "in vivo", "conditions": "compared with PBS", "experimental": "Whole eye globes were fixed in 4% PFA containing 10 mM sodium orthovanadate for 10 minutes. Corneas and lenses were removed, and posterior eyecups were fixed for another 15 minutes in 4% PFA, then incubated in 30% sucrose/PBS at 4° C. overnight, and mounted in optimal cutting temperature compound (Tissue-Tek; Electron Microscopy Sciences, Hatfield, Pa.). Cryosections (12 μm) were cut sequentially and stained for immunofluorescence analysis. Cryosections were incubated with rabbit anti-phosphorylated VEGFR2 (p-VEGFR2 at Y951; Santa Cruz Biotechnology, Santa Cruz, Calif.) overnight at 4° C. After washes, sections were incubated with AlexaFluor 405 conjugated goat anti-rabbit second antibody for p-VEGFR2 and lectin for 1 hour. Sections stained with only secondary antibody and DAPI were controls. […] For p-VEGFR2 in retinal vessels, the density of p-VEGFR2 colabeling with lectin-stained ECs of the primary vascular plexus at the junctions between avascular retina and vascular retina was measured with the threshold function of the Java-based imaging software (NIH). TUNEL-positive cells colabeled with tetramethylrhodamine red (TMR red) and diamino-2-phenylindole (DAPI) were counted in retinal sections imaged at ×4 magnification. Retinal thickness was measured from ganglion cell to ONL in DAPI-stained sections captured at ×40 magnification using Java-based imaging software (NIH). […]"}, "EPOR": {"tested_on": "EPOR", "assay": "EPOR expression in hRMVECs (qPCR, Western blot)", "assay_type": "cell-based, human", "conditions": "overnight treatment, vs PBS", "text": "hRMVECs (Cell Systems, Kirkland, Wash.) were maintained in EGM-2 endothelial growth medium (Lonza, Walkers-ville, MD) supplemented with 5% fetal bovine serum. Cells of passage 3 to 5 were used for experiments. […]\nFor siRNA transfection, hRMVECs at 70% confluency were transfected in six-well plates with siRNAs targeting human EPOR, VEGFR2, or STAT3 (Life Technologies, Carlsbad, Calif.) using Lipofectamine 2000 reagent (Invitrogen by Life Technologies, Carlsbad, Calif.). A silencer selective negative control siRNA was used as control.\nTotal RNA of cells was extracted by TRI Reagent (Sigma-Aldrich, St. Louis, Mo.). For dissected retinas, total RNA was extracted using an RNeasy mini kit (Qiagen, Valencia, Calif.). RNA was quantified using a NanoDrop spectrophotometer (Thermo Fisher Scientific, Waltham, Mass.). cDNA was generated with the use of a high-capacity cDNA archive kit (Life Technologies, Carlsbad, Calif.). qPCR was performed on a Mastercycler ep realplex system (Eppendorf, Hauppauge, N.Y.) with the use of SYBR Green master mix (Roche Diagnostics, Indianapolis, Ind.) and primers synthesized by the core research facility of the University of Utah. Expression levels for VEGFA were normalized to the mean value of internal control β-actin. […]\nDissected retinas and hRMVECs were lysed in radioimmunoprecipitation assay buffer with 1:100 protease inhibitors (Roche Diagnostics, Indianapolis, Ind.) and 2 mmol/L sodium orthovanadate and were homogenized and centrifuged at 13,000 rpm (15,700 g) for 10 minutes at 4° C. Total protein in the supernatant fluid was quantified by a bicinchoninic acid assay (Pierce BCA; Thermo Fisher Scientific, Waltham, Mass.). […] Blots were visualized, and the relative densities of bands were calculated as described herein, using gel analysis software (UN-SCAN-IT gel, version 6.1; Silk Scientific, Orem, Utah). Relative activities were calculated as the ratio of phosphorylated to total protein or to β-actin and are expressed as fold difference compared with control. At least six samples from each group were measured and analyzed."}, "pSTAT3": {"tested_on": "pSTAT3", "assay": "IHC densitometry of pSTAT3 colabeled with lectin, p18 rat ROP model", "assay_type": "in vivo", "conditions": "injected at p10, 10^6 viral particles/inj, vs. luc.shRNA"}, "STAT3": {"tested_on": "STAT3", "assay": "Western blot of STAT3 in 293T cotransfected with Lenti-VE-cad-GFP-driven shRNA and plasmid expressing coding sequence", "assay_type": "cell-based, rat", "conditions": "293Ts", "text": "The strategy can be similar to knockdown of MC-expressed VEGFA, except a ve-cadherin promoter to target ECs can be used. The ve-cadherin promoter recruits polymerase II to drive miR30 embedded shRNAs. […] For control, shRNA targeted to luciferase (luc.shRNA), a nonmammalian gene, was used. Into a plasmid DNA expressing a Flag-tagged wild type (wt) coding sequence (wt-cDNA) for EPOR or VEGFR2, point mutations in the cognate region of the cDNA can be introduced where the shRNA binds to render the cDNA resistant to RISC cleavage without changing the native amino acid sequence (mut-cDNA). Then cotransfect 293T cells with either VEGFR2.shRNA or EPOR.shRNA and respective wt-cDNA or mut-cDNA. Off target effects can be determined by western blots of Flag expression or from interferon-induced genes using BLOCK-iT RNAi Stress Response Control Kit (Invitrogen, CA). Groups can be: rat EPOR.shRNAs+rat EPOR-wt-cDNA, rat EPOR. shRNAs+rat EPOR-mut-cDNA, rat VEGFR2.shRNA+rat VEGFR2-wt-cDNA or rat VEGFR2.shRNA+rat VEGFR2-mut-cDNA. Luc.shRNA and no DNA transfection can be controls. For specificity (FIG. 14A), lentiviral transduction of rECs, rat MCs (rMC-1s), human ARPE can be tested.\nUsing methods as in Example 5, 3 STAT3.shRNAs for knockdown in 293 Ts (FIG. 14D) were developed and tested. […]"}, "rMVECs": {"tested_on": "rMVECs", "assay": "Lentivirus transduction specificity (ve-cadherin promoter) in cultured cells", "assay_type": "cell-based", "conditions": "rMVECs vs rat MC-1s, 293T"}}, "data": [{"molecule": "O=P(O)(O)C(Cl)(Cl)P(=O)(O)O", "note": "[clodronate]", "values": [{"measurement": "AVA", "setting": "rat ROP model", "value": "not AVA"}, {"measurement": "IVNV", "setting": "rat ROP model; vs. PBS", "value": "significantly reduced"}, {"measurement": "reduction of macrophages", "setting": "macrophages", "value": "~75", "unit": "%"}]}, {"molecule": "CN(C)c1ccc(/C=C2\\C(=O)Nc3ccccc32)cc1", "note": "[SU4312]", "values": [{"measurement": "retinal apoptosis", "setting": "retina [1]", "value": "no retinal apoptosis"}]}, {"molecule": "luciferase.shRNA: control lentivector shRNA to the nonmammalian gene luciferase (nucleic acid) DNA: TGCTGTTGACAGTGAGCGAAATGTTTACTACACTCGGATATAGTGAAGCCACAGATGTATATCCGAGTGTAGTAAACATTCTGCCTACTGCCTCGGA", "values": [{"measurement": "TUNEL+ cells", "setting": "retina [2]", "value": "increased TUNEL+ cells at P18 but not at P25"}, {"measurement": "thickness of the retina, INL or ONL", "setting": "retina [2]", "value": "did not alter the thickness of the retina"}]}, {"molecule": "vascular endothelial growth factor A (protein, growth factor used at 20 ng/mL to stimulate hRMVECs) APMAEGGGQNHHEVVKFMDVYQRSYCHPIETLVDIFQEYPDEIEYIFKPSCVPLMRCGGCCNDEGLECVPTEESNITMQIMRIKPHQGQHIGEMSFLQHNKCECRPKKDRARQENPCGPCSERRKHLFVQDPQTCKCSCKNTDSRCKARQLELNERTCRCDKPRR", "values": [{"measurement": "EPOR protein", "setting": "EPOR; 20 ng/mL VEGFA or 10 IU/mL EPO", "value": "increased EPOR mRNA expression (FIG. 35A) and protein levels"}, {"measurement": "EPOR mRNA expression", "setting": "EPOR", "value": "increased EPOR mRNA expression"}]}, {"molecule": "STAT3.shRNA2: lentivector-ve-cadherin STAT3.shRNA with the best knockdown; rat STAT3 (nucleic acid) TGCTGTTGACAGTGAGCGAATCGTGGATCTGTTCAGAAACTAGTGAAGCCACAGATGTAGTTTCTGAACAGATCCACGATCTGCCTACTGCCTCGGA", "values": [{"measurement": "pSTAT3/STAT3 colabeling with lectin", "setting": "pSTAT3", "value": "STAT3-lectin colabeling was reduced"}, {"measurement": "pSTAT3/STAT3 colabeling with lectin", "setting": "pSTAT3; listed as STAT3.shRNA", "value": "reduced"}, {"measurement": "STAT3 knockdown among 3 STAT3.shRNAs", "setting": "STAT3", "value": "best knockdown"}, {"measurement": "cell specificity of transduction", "setting": "rMVECs", "value": "showed specificity for rat MVECs"}]}]}
